In test [1] the target is human triosephosphate isomerase K13M, catalytically inactive (hTPI^Δcat) (human). Kind of test: crystal structure; sitting drops, 28-34% PEG2000 MME, 50 mM KBr; space group P212121, a dimer in the asymmetric unit; 1.7 Å.
The target of test [2] is human triosephosphate isomerase M82T (hTPI^M82T) (human). In words: SEC; purified TPI diluted to 15 uM in mobile phase, 100 ul injected, elution monitored at 280 nm; peak areas integrated for the relative monomer and dimer populations; dimer to monomers. (In gel filtration, larger molecules generally elute earlier.)

Our source for the stoichiometry N and percent dimer (dimer:monomer ratio of peak areas) values is article PMC4816394.

With “human triosephosphate isomerase K13M, catalytically inactive (hTPI^Δcat) (enzyme)”, the stoichiometry N in test [1] is 2. Regarding “human triosephosphate isomerase M82T (hTPI^M82T) (enzyme)”, the percent dimer (dimer:monomer ratio of peak areas) in test [2] was found to be 5%.

In general, stoichiometry N refers to the number of molecules, sites or subunits per partner or assembly.
